Data on 17 sequences can be found in a protein production outcome set (Wang et al. 2014).

This series can be described thus: label from the status in PepcDB records.

Regarding “MRGPGSASVRGYGQCKDTLHTSSPFHEAPASVRRPRTTGRVHTLGIRAPPPPRSQPEFLFSGNPFAPVSSVQRDAARRVSPRIPSLDQASRRPVAKLVVPGGNGFIGTEICRVAVQNGHEVAAFGRTGRPALTPARHPWVQDVEWRAADVFAPDAWRDLLDGADAVVHTIATIREHPDRNVTFDRVNAESALRAAEAAVAADVGAVVFLSVRDKPPLVPYAFLSAKRRAERALREDHPSLRTVTLCPNLVYGARKTGTPTLAAVLNQAQGMRPHPYATAEGRPLPVEFVAAAAVQAAVTSTMEGTLTVPQIDDIGRTSGLVDPNAASTPSLAPLLVGLGGTALGAWLLRRWRAS”, the protein production result is on record as “failed”. To “MRGPLSRPVCMKLGIDFGTSNSAAAAIVDGQVVPVRFGQALQFRTTVYFPETMRDPDDFSLTPALEYEVERLIDSGRRDALAAGRTPNNDSLRRDAIRIVRRQWMEEQVREPRSSAALLQNAVYGDEALDAYFLEGEGSLVQSPKSMLGYNLHPRARQTMTGIATHVLEHIRLTASRQFDINIRHATLGRPVQFRSSIGEAGNAQALEILQTAAIAAGFDSVDFLEEPAAAAMHYHVSHDSRHDTVVVDIGGGTTDVAHASVGGSAAPQVHRAWGIARGGTDIDLALSLAAYMPLFGRGITRVPTHHYVEAAMVQDMTRQREFRLHKYQDVPAPFDRRLQALQDTGNTARLYRGVEACKIALSELDRHQDALDFIERGLGVDVQAGALVASASNYLDELEGLLAQVRTEMATAPATVFLTGGMSRAGYIRDTVAAAFPESRLVHGDPSFGVVQGLAWAAAQDARLSDG” belongs “failed”. With “MRGSHHHHHHTDPALRAATLLQLHFAFNGPFGDAMAEQLKPLAESINQEPGFLWKVWTESEKNHEAGGIYLFTDEKSALAYLEKHTARLKNLGVEEVVAKVFDVNEPLSQINQAKLAGLCGR”, the protein production entry is listed as “not failed”.

In the case of “MRGYVLGLLALNLLTLIWGTTFVVVKGAVEGMAPSLLILLRFGVAALFFLPWLFRLPVGVFGPGMELAFWLFVGYASQTLGLAHTSASRSAFITALSVVLVPLLLRLAGREVGPAFLAAFLALAGVGLLSYDPYQPPFNVGDLWTFLTALAYALYIVRLEVHARAFPSLPLTAVQVLGTALFALPWVLAEGGAWGPVAWGAVLYLGVVATALTTWLQTWGQRHVPAPQAAILYTLEPVWAAFFAYLALGERLSPSGLLGALLVLLATLLAIRRSPA”, the protein production entry is reported as “failed”. In the case of “MRHFGPISGIATFKDTYVATAGYDNQVILWDARTRTPIQRVLHDHLANQCAFNAAGTLLVSASSDYTARVWEVPSLRLKTVLIGHDDDIEMAAFSPDGQTIATCSRDHSIRLFNLSGQTLRILHGHTADVISVCWSADGQTLVSSSDDGSIRRWDANTGQQLETIDLGGVETDTVALSREGIIFAGDDEGKISIISPRGTLLQPAHSAGIKRIIWDDSQRLLISLSYDRSVMLWHLKQDGTLVKTAETSLPSIIWPRSCALLGSHRIAFVTFGSRYATWDFATQTWDLSGIEPAVSLNAVAVVGEDVYSIGDAGILHINGQPSIKAGSLCNFLLPFGDSVLTGGQMGTVFDARTGATLYQHRSPLNCGTTFIKDGALHAAIGTYTGEALIFCLDQQQPRFVTQVRMHENAIKGIAADETYIFSVCATAAAAFFRIADFGLETYLDKAHERISNGCTQIQGGFASIGRDLKLRLWRDGASEVFDTPHSHSIKCIAISRDRSMIATGSYGGTVAVFDLKKRVWASVEKPTASGISCLIHDASGEGFLASAYDGRIYPITPRAAVQSARP”, the protein production entry is “failed”. To “MRHVSNGDPVRVVIVTDGAYGAPAESGDYAQTRRRESTRAAAILGYGAPEFWNLPDRGLEYGERLIQRVLTAMEDHAAELVYAPSWWEVHPDHRVLALAATEAVRRCTRPLRLAMYEVGVPLQPNALLDITDLAERKASAVACFSSQLAQQDYDEQIASLNRFRTYTLPRTVRAAEGYLVLAAEELRNRIPRMMTQKDRLAVRGETGDTAATPLVSVIIPSMDGPRLKEALDSVALQTYPRIEAVVIDAKGEGHTPLPRWCGRFPLRFIPSDISLSRGRAADVGLEHAEGDYLVFLGEDDVFQPGDVASLVAEAARKQGTGLCSHADRRMTVFSGGVVDGSPRTGKPGKPAFLPLHAVLFDRSLAELRCRFDGDANVPEDGDFWDQAMQHVASIHPGACRHGHGLPGGEAGRHTIVRLPPWTSPAPLPPGASLARTPHPTERDSLRRRIQRAGRRIYETPPRGLTDALVRTAYRIWARLSSDSMITNDGKGTLEHHHHHH” belongs “failed”. Then “MRIEPRPLPETLPDLGDLPPLLARLYAARGVRCAEELDKGLARLIPYQRLKGIEEGVALLVDALEGGQRILIVGDFDADGATASSVGVLALRMLGAAWVDYLVPNRFEYGYGLTPEIVGVALEKRPDLLVTVDNGISSVDGVQAAKAAGLKVLVTDHHLPGPELPAADAIINPNQPGCEFPSKA”, with “failed”; and “MRIGVIMGGVSSEKQVSIMTGNEMIANLDKNKYEIVPITLNEKMDLIEKAKDIDFALLALHGKYGEDGTVQGTLESLGIPYSGSNMLSSGICMDKNISKKILRYEGIETPDWIELTKMEDLNFDELDKLGFPLVVKPNSGGSSVGVKIVYDKDELISMLETVFEWDSEVVIEKYIKGEEITCSIFDGKQLPIISIRHAAEFFDYNAKYDDASTIEEVIELPAELKERVNKASLACYKALKCSVYARVDMMVKDGIPYVMEVNTLPGMTQASLLPKSADAAGIHYSKLLDMIIETSLRVRKEEGF”, with “not failed”. To “MRILFVGPPLYGLLYPVLSLAQAFRVNGHEVLIASGGKFAQKAAEAGLVVFDAAPGFDSEAGYRRQEALRKENNIGTKMGNFSFFSEEMTDPLVAFAGQWRPDLIVYPPLGVVGPLIAAKYDIPVVMQTVGFGHTPWHIKGVTKSLSNAYRRHGVSAPPRDLAWIDVTPPSMSILQNDGEPVISMQYVPYNGGAVWEEWWERTPDRKRLLVSLGTVKPMVDGLDLISWVMDSAGEVDAEIILHLPANARSDLRSLPPNVRLVDWLPMGVFLNGADGFIHHGGAGNTLTALHAGIPQIVFGQGADRPVNARAVVERGCGIIPGKSGLTSSMINTFLGNRALREASQEVAAEMAAQPCPTEVAKKLIAMLQHGLEHHHHHH” belongs “failed”.

Take “MRILSGMRPTGKLHIGHLVGALENWVKLQEEGNECFYFVADWHALTTHYDDVSKLKEYTRDLVRGFLACGIDPEKSVIFVQSGVKEHAELALLFSMIVSVSRLERVPTYKEIKSELNYKDLSTAGFLIYPVLQAADILIYKAEGVPVGEDQVYHIELTREIARRFNYLYDEVFPEPEAILSRVPKLPGTDGRKMSKSYGNIINLEISEKELEQTILRMMTDPARVRRSDPGNPENCPVWKYHQAFDISEEESKWVWEGCTTASIGCVDCKKLLLKNMKRKLAPIWENFRKIDEDPHYVDDVIMEGTKKAREVAAKTMEEVRRAMNLMF”: the protein production result was “not failed”.

As for “MRIPHHLSRSPTGRWSFVQRVPVDLQTVMGCRLIKRTLQTKDLAQAHVRAVVLGAGYARLFAQLTDQRVDKLSKTDADLLIARLTSAENLQDLTLNRTRQPDGTVTEQWQIDSPKDLKLYRQLMELEAMAGAALQARAHPVAVPTMFGSTHAGPSRQSSAPAIETMTLGKARDAFLATLKGSTLPKTYTIKKTAIEALVSFLGPTMKVHAITRSDLARWYQDMREKGASTPTLTNKQSYIGGRGGFFEWAMASGHYPKGDNPASGHVSYSQREKRARKKLGFKAYDRAQIQALFAPEALAKLSESARWASFLGLYTGARASEVGQLLVKDVFEEDGIPCIRISDEGEHQKVKTEVSLRTVPLHPELLKMGFLEWVGGKRKVGETRLFPAAKATAVNGQGNWITKAFSRHLAEVGKNWEPAKRGFHSLRKTLIQELQGAGVVSELRAQIVGHELDDEHHSTYGRDFTVVEKLRGLGPHSPGISRLSFFQ”, the protein production entry is listed as “failed”. Then “MRIRFSRCASPRGKSSTGVIVPVCSAIYSIRRFWRWNKMKISVVIPTFNRCHLLAEAINSALDQASSELEVEAVIVDDESDDGTAAWLETAFAGEHRVRVLVNGRGKRPAGARNTGILAARHPKVGVIFSRARYEQDETEVPYMDPNFECKLCYASIATEDKDAVVFDRSYFGHLLKYSCYFNLSAVVMTADAARQLMSESLHIAEDFKFWVRLSHEQIFACLKVPQIRYRSHSANIPFKADKDPAGNTPSMLHTYRLMLGYPGLARSNREQLRKHMAKEYFDWAYRCSRKGRLAEALRLRLALFDLLWKNVVACVKLPWIGLRYRADRVGSTEQ”, with “failed”; and “MRIVGLTGGIASGKSTVSNLFKASGIPVVDADVVARDVLKKGSGGWKRVVAAFGEEILLPSGEVDRPKLGQIVFSSDSKRQLLNKLMAPYISSGIFWEILKQWASGAKVIVVDIPLLFEVKMDKWTKPIVVVWVSQETQLKRLMERDGLSEEDARNRVMAQMPLDSKRSKADVVIDNNGSLDDLHQQFEKVLIEIRRPLTWIEFWRSRQGAFSVLGSVILGLSVCKQLKIGS”, with “failed”; and “MRIYRTLTTYIARTYLTALVGATLVVGALLMLFDVIEITRRSGSKAIGIDVVLEMALYHLPMSLQSALPFVFMGGAVMIFWKLARSSELVVIRAAGLSVWQFLAPVIAVVVVLGIANVTLLNPLAAHLYTKYERMDAGMDSGVANPLALSDGGLWLRENNPEGQVVMHAQGVRQVDNALRMTGVTIFRYGPDRRFESRIDAETAGLREGALVLTSVVTTYPGRVGERAETLEVPSNLTLPKIQDSFSPPETVSFWELPAFITFFEAAGFSAHAHRLHWHSLIASPLLLIAMVLMGAVFSLKPSQRSVNWLFRIVGAVAAGFGVFFFSKITYTLGLSQTLPVNLAAWSPALVTTMVALAALFHLEDG”, with “failed”. For “MRKDETSNTSPDISVAQPASALRYHLRPPRRNDGAAIHQLVSECPPLDLNSLYAYLLLCEHHAHTCVVAESPGGRIDGFVSAYLLPTRPDVLFVWQVAVHSRARGHRLGRAMLGHILERQECRHVRHLETTVGPDNQASRRTFAGLAGERGAHVSEQPFFDRQAFGGADHDDEMLLRIGPFTHPPH”, the protein production result is “not failed”. Then “MRKDILYMLLLLLITDLSIIADIPVLRQSLPFIFFTIIPGYLLLGILKFKVELIDGSVIAAALSIFLMMMTGLIINSFYPLIMRPLSLLPILSAINLLIIALMVIYHLRGEEPLNLKASGNLSTALSSLLFPVLTVIGSYLMNKYSVNTVLLLVLLFIPVYIILLEVFKKKIGPATYPVAIFSISLSLLIMNGLPSNYLIGRDIHWEFYLFRKALMAHHWDMHVGSYNAYNACLSVTVLPVIYKVLLNVPEVYIFKFYYGFIGALMPLPVYLISERILKRSDYGFYATLLFIFQFSFIYILGWCRQLVALLFFAAAVMVLTGDMRRSHKKLLFVVFMVGTVLSHYTTAYVFFFLVALIPILVRVMKRLKVPDDSRGFFAASLAVLFFVVVFAWYAQATGAPFKSAVSFFTKTLRSMSEFFSADMRNNSELAVVGIGISNFPNLLSTLVHDTVFALIGAGALAVIFKEEYRQGREYLAAVILCMGILVAFIALPFVSKGYGGPRLFTQLLVILAPLFITGIDALTGFIGRVRWRIPSIIVLLILLFSCTTYLNYHFAGIPYSYAYDDGGERRYETFIYDNEVTGALWLSNHYNETSVIHGDKMIYSRIIYGFSTYPRVDREFFNGTDTETGGYVYLTHFNLYQRLVFLDYPLAPPRVVNGALKLDNVESINNYKDLIVNMSTIYDNGGSRVLIVA”, with “failed”.

Consider “MRKDWGDGPGGLGTAMQDKILLIEDSVALSMLLRTRLSDETEAEVVHCASMAEADALMQANNFTLALTGLNLPDAPKGEILTLLSERKVPAIVFTATVDEEARKRYAEKKIIDYIVKDGHRTVDAVVKTVDRIMTNKRFSVLVVDDARTARSGLVEILERQNFKVSEAHSGNRALEILSQDPSIQLVITDYHMPDMDGYELTRRIRDSRSSEDLRVIGISSSTDRLLSASFLKAGASDFVYRPFVPEELQCRIDNNIETLKQLKRLRELAERDHLTGLPNRRSFFERTRALMDVINDNDESGAVAILDIDHFKKINDTLGHDAGDRALKKLAELLQGMCDEQRHIPARLGGEEFAVFLRGLDARAAYAFCEELREQVEKNGRQLSGSSLALTISLGVVEIEKGEPFDNQLNAADQLLYLAKANGRNRVYSDIMIQEGLQKIGLNG”, for which the protein production entry is “failed”.
